Measurements taken from patent US8609413B2, “Neurons, astrocytes and oligodendrocytes differentiated from a mammalian pluripotent or neural stem cells exposed to a pyridine deriviative” (Research Development Foundation, priority 2007, dated 2013).

Tested on: human ESC-derived NPC / ESC aggregates
Experiment: Air/liquid interface three-dimensional culture with added factors
Assay type: cell-based
Details: exogenously added factor
From the text: Air/liquid interface expansion/differentiation of NPC may be performed via the following protocol. One or more rosettes-enriched clusters may be manually removed and multiple clusters (e.g., about 5-10 clusters) may be plated on a hydrophilic polytetrafluoroethylene (PTFE) membrane (e.g., 6 mm diameter, 0.4 μm, BioCell-Interface, La Chaux-de-Fonds, Switzerland). This membrane may be deposited on a Millicell®-CM (0.4 μm) Culture Plate Insert (Millipore) (FIG. 5A). N2 medium may preferably be added (e.g., about 1 ml) underneath the membrane insert.
Air/liquid interface expansion/differentiation of NPC. Rosettes-enriched cluster were manually removed and 5-10 clusters were plated on a hydrophilic polytetrafluoroethylene (PTFE) membrane (6 mm diameter, 0.4 μm, BioCell-Interface, La Chaux-de-Fonds, Switzerland). This membrane was deposited on a Millicell®-CM (0.4 μm) Culture Plate Insert (Millipore) (FIG. 1). One ml of N2 medium was added underneath the membrane insert.

B1: Noggin: a polypeptide playing a key role in neural induction (protein, UniProt Q13253 28-232, looked up)
Noggin: QHYLHIRPAPSDNLPLVDLIEHPDPIFDPKEKDLNETLLRSLLGGHYDPGFMATSPPEDRPGGGGGAAGGAEDLAELDQLLRQRPSGAMPSEIKGLEFSEGLAQGKKQRLSKKLRRKLQMWLWSQTFCPVLYAWNDLGSRFWPRYVKVGSCFSKRSCSVPEGMVCKPSKSVHLTVLRWRCQRRGGQRCGWIPIQYPIISECKCSC
- phenotype of engineered tissue: had no influence on the self-organization and phenotype
